From patent US20170269069

Test system: recombinant histone H3, wild type

Row | Protein | H3NT protease activity (in vitro H3NT cleavage assay, Western blot with the H3CT antibody)
1 | recombinant USP39 (enzyme, UniProt Q3TIX9 1-564, looked up, species assumed, His tag) Ubiquitin carboxyl-terminal hydrolase 39: MSSRSKRQSHGSTRGKRESESRGSSGRIKKERDREKEPEAASSRGSPVRVKREAEPAAREVPAPALPVVRVKREREADEDSEPEREVRAKNGRVDSEDRRSRHCPYLDTINRSVLDFDFEKLCSISLSHINAYACLVCGKYFQGRGLKSHAYIHSVQFSHHVFLNLHTLKFYCLPDNYEIIDSSLEDITYVLKPTFTKQQIANLDKQAKLSRAYDGTTYLPGIVGLNNIKANDYANAVLQALSNVPPLRNYFLEEDNYKNIKRPPGDIMFLLVQRFGELMRKLWNPRNFKAHVSPHEMLQAVVLCSKKTFQITKQGDGVDFLSWFLNALHSALGGTKKKKKTIVNDVFQGSMRIFTKKLPHPDLPAEEKEQLLHNDEYQETMVESTFMYLTLDLPTAPLYKDEKEQLIIPQVPLFNILAKFNGITEKEYKTYKENFLKRFQLTKLPPYLIFCIKRFTKNNFFVEKNPTIVNFPITNVDLREYLSEEVQAVHKNTTYDLIANIVHDGKPSEGSYRIHVLHHGTGKWYELQDLQVTDILPQMITLSEAYIQIWKRRDNDETNQQGA | only rMMP-9 possessed H3NT protease activity
2 | recombinant DIM1 (enzyme, UniProt P83877 1-142, looked up, species assumed, His tag) Thioredoxin-like protein 4A: MSYMLPHLHNGWQVDQAILSEEDRVVVIRFGHDWDPTCMKMDEVLYSIAEKVKNFAVIYLVDITEVPDFNKMYELYDPCTVMFFFRNKHIMIDLGTGNNNKINWAMEDKQEMVDIIETVYRGARKGRGLVVSPKDYSTKYRY | only rMMP-9 possessed H3NT protease activity
